Source: the DeepSol protein solubility set

test: soluble on expression in E. coli; label from the status in PepcDB or PDB records

Sequence	soluble on expression in E. coli
QLQEKLYVPVKEYPDFNFVGRILGPRGLTAKQLEAETGCKIMVRGKGSMRDKKKEEQNRGKPNWEHLNEDLHVLITVEDAQNRAELKLKRAVEEVKKLLVPAAEGEDSLKKMKLMELAILNGTYRDANLKSPALHHHHHH	soluble
MGSDKIHHHHHHMLYSFSRLVYRILTVVGVLDGRAAYKRRIQLTGRSTYIVSLPKEWVETWRLGRGSEVTLEVMPDGSLKIAPSASERPARRDRRVIDLRGKELDLSFVIKSVIASYLAGYDEVLLLFGDGSVDAVSKIRSIVESNILGFNVLEEGPGYIVFVSVVDHRSMEFSRALSRMARIAAEMIRDVARGLENGDRGLLDLVAERDQLVDKLYLYMARQMTMASSGRLPLKDLGVYSPAEIVHLFLAVKSIERVADHATILSVRVSASLGAGMSVENGLSSLVMEAAEGFSKSVEALIKADAGLAASIAPVLSEYRSRLESMTAQEFLRGGGSLLRYLVIDSMRRITGYSLDIAEAALDISAVREKAKSEGP	not soluble
MKNVKTIAAAVVLATMTFGASAAEYVSPSQAQNLEKAGVVTATAQDLSSLQSQLAAKAEKAGAKAYTITSATGNDQLRGSAVIFN	not soluble
MGFWCRMSENQEQEEVITVRVQDPRVQNEGSWNSYVDYKIFLHTNSKAFTAKTSCVRRRYREFVWLRKQLQRNAGLVPVPELPGKSTFFGTSDEFIEKRRQGLQHFLEKVLQSVVLLSDSQLHLFLQSQLSVPEIEACVQGRSTMTVSDAILRYAMSNCGWAQEERQSSSHLAKGDQPKSCCFLPRSGRRSSPSPPPSEEKDHLEVWAPVVDSEVPSLESPTLPPLSSPLCCDFGRPKEGTSTLQSVRRAVGGDHAVPLDPGQLETVLEK	soluble
MGHHHHHHSHMSQQRPDRIKQMLHYLWQHRHLSTQQAMELFGYAEATVRRDFQYIVNQYPGMIRGHGCLDFDDSTDDKEYVFDVKRTLQSVAKREIAALARTMIKDGDCFFLDSGSTCLELAKCLADARVKVICNDIKIANELGCFPHVESYIIGGLIRPGYFSVGESLALEMINAFSVERAFISCDALSLETGITNATMFEVGVKTRIIQRSREVILMADHSKFDAVEPHAVATLSCIKTIISDSGLPETIAQRYQRAGCQLFLPHSIK	soluble
MSKIASEVVATTLNDWYIAIKKQKVDESIKYYSEIKKLFDEMEEDQEVLAYYSLLEERHKMLLHSSRGEPLQKHTYFTEDNQNFITKTNDKLEYNFYLFEAMYEAYNKNYDRAINLYGLAEKKLAEIPDEIEAAEFYSKVSYLYTLVKQSIVAQHYIKNAISIYKRHPDYKCKLATSTMIAAANYADMKRFEEAEQYYLEAIDIAKETKDEFLKAQLFHNLSIVYSDWNKPDKCIESLEKAIGNESWLHSIYYINSLFMMIKELFKIDEKMKAINFYNKAQERLILMENKVYEAKISILYNLYCGELKNNFNNCISNIEFLKQQNELESVDELSYIAAKRFESIGAFEEATSFFNAKIWAE	soluble
MRVSLYVVVGGFALLTGCQTLDNHQVTKPEAQTVTTENTVPQYYLATEPESAQVTDVWERIRQGMQLPVPDKKLVNYYRDWYINNPKHLEVISERAAPYMYLIVEELEKRHLPIEIALLPIIESAFDPSASSASAASGLWQFTTPMASHFGLEMNWWYDGRRDVPASTTAALDMLEYLYNKTNNNWLYAIAAYNTGESKVLNAIKRNEDKGLKTDFWSLDLPKETKRYVPQLLALAEVIKHADEYGITLAPINNSPSIEVVDIDSQIDLAMAAGLANMTTTELAKLNPGYNRWATSPLGPHTLVLPIDKSEEFKKALAETESEARVSWLRYTIKSGDSIGSIAQKHHTTVNAIRAANGMKSNNIVAGRHLIIPVSADDKQLYALSTSQKLPKKAAGATSGNKLTYQVKSGDSLWQIAQAHNVSVKQLTAWNHLSKDSKLQTGQKLTIVAPQEKLDSEHIRTVSYKVKSGDSLAQIASKFKVTVAELLEWNSLTPSQYILPGQVLKLVVDESNLNALEHHHHHH	not soluble
MRLFILLSCLLAWVLAAPYIDQEDALRVLNAYLEQFGPGSDRVYYVAEDDHGSMKRGLGPRPLRFG	not soluble
GPGSMERYAFAEDYKNARGIPRVEYISDMATFVKNNGGADALISRLILDSSKYEHTEKRLVSSMANLDHKIPTIKKTLHALNFLKKRLQEDQTPVRSYYCLTDAVFGEAEVVPQETVHLWMGAKVMVEYTFDEALQLLEKNLANAETNLKATKEDLAWVQEQMTNLQINISRVYNYDLKNKRTNGGAAEPSA	soluble
GPGSMKSPHMARIGNSVYRDICPEDDPLCSNFGFEDYDLSRPTPMMRMSLLYNLHVSGESPSPAIDNMFRLAYRSRHGLVKIYKVMNVSAESKAWVADPKNRKCDAPGSWLCTGQYPPAKEIQEMLARRIDYGQLEDFNRGKRDDAYYRAYMRRIRNQGRG	soluble
MAAIAFIGLGQMGSPMASNLLQQGHQLRVFDVNAEAVRHLVDKGATPAANPAQAAKDAEFIITMLPNGDLVRNVLFGENGVCEGLSTDALVIDMSTIHPLQTDKLIADMQAKGFSMMDVPVGRTSANAITGTLLLLAGGTAEQVERATPILMAMGSELINAGGPGMGIRVKLINNYMSIALNALSAEAAVLCEALNLPFDVAVKVMSGTAAGKGHFTTSWPNKVLSGDLSPAFMIDLAHKDLGIALDVANQLHVPMPLGAASREVYSQARAAGRGRQDWSAILEQVRVSAGMTAKVKM	soluble
PARPFRVSNHDRSSRRGVMASSLQELISKTLDALVIATGLVTLVLEEDGTVVDTEEFFQTLGDNTHFMILEKGQKWMP	soluble
MAHHHHHHMNGMRAYNLGSRRYHDVLRLQEAIFRKKIDRQMRYIRGDKSARLIPNVVLLVEHSSPVYTIGRRDTSNGIKAGCAAEVVKTRRGGGVTFHGPGQVTMYPIVNVQVLWKQCTASDKPRSPIEWFSSVLEQAMINVAGEYNIPAHRGRVGVWSDSWGDVAPRKMGFVGLQLGNWVSMHGAGLNVSNNLLYFNDIVMCEMPNEAATSLVEELRLRGLSGAEPTPHVIAPRLLHHFLLSMQQQESVVNTELVDLSIDGSWERSILCELE	not soluble
NAKVKRIRLGNLKKTVKLYDLIDEFHSTTLENLKNGLRTGRGYCIEINKQVVSMAKSTSENRTHAMIIGVGTHPKYRAKGLATKCLIKLCSELLRENKIPCLFYDNEEAGKIYKKLGFENIGKWGIYSK	not soluble
MGSDKIHHHHHHMSYDEAFKTLLISSNAKLNLELNHLVIKQDENIAKLFLKDINIIVLESLQISISSALFNAFAKYKIILLTCDETHSINGVFTPFLGHFQSAKIAKEQMNVSAQKKAILWQKIIKNKILNQAFILKKHNKIEQSNELINLAKKVSLNDSKNIEAVAAALYFKTLFGTSFSRDELCFENSALNYGYAIIRACIIRAVCISGLLPWLGIKHDNIYNSFALCDDLIEVFRASVDDCVLKLKGESEFLSKDDKRALIGNLQSKINFDGQNYPLNRAINHYVANFKNALLYEDELKIVKFDD	not soluble
MGSDKIHHHHHHMSKTRYYLEQCIPEMDDLVEKGLFTKNEVSLIMKKRTDFEHRLNSRGSSINDYIKYINYESNVNKLRAKRCKRILQVKKTNSLSDWSIQQRIGFIYQRGTNKFPQDLKFWAMYLNYMKARGNQTSYKKIHNIYNQLLKLHPTNVDIWISCAKYEYEVHANFKSCRNIFQNGLRFNPDVPKLWYEYVKFELNFITKLINRRKVMGLINEREQELDMQNEQKNNQAPDEEKSHLQVPSTGDSMKDKLNELPEADISVLGNAETNPALRGDIALTIFDVCMKTLGKHYINKHKGYYAISDSKMNIELNKETLNYLFSESLRYIKLFDEFLDLERDYLINHVLQFWKNDMYDLSLRKDLPELYLKTVMIDITLNIRYMPVEKLDIDQLQLSVKKYFAYISKLDSASVKSLKNEYRSYLQDNYLKKMNAEDDPRYKILDLIISKL	not soluble
MDNVVDRHVFYISDGTAITAEVLGHAVMSQFPVTISSITLPFVENESRARAVKDQIDAIYQQTGVRPLVFYSIVLPEIRAIILQSEGFCQDIVQALVAPLQQEMKLDPTPIAHRTHGLNPGNLNKYDARIAAIDYTLAHDDGISLRNLDQAQVILLGVSRCGKTPTSLYLAMQFGIRAANYPFIADDMDNLTLPTSLKPLQHKLFGLTIDPERLAAIREERRENSRYASLRQCRMEVAEVEALYRKNQIPCLNSTNYSVEEIATKILDIMGLNRRMYLEHHHHHH	soluble
MFSQAQFNVTMAEEDRWKQWYPNMEMIVNNKGPKLIFPELNFNITGLEEKSRYVVLLSIEKYDNIRYGYRNGKWGPSKVRHATKKEQEIKYFLHPDGTKLGKELMKETIKFDTVRITNHKKFMDKDNVFFVETMHKYVPVLTVKNITNVESANHSMRMEVAQFFPVTVYNQESIGNWKSKFHKNSTYGNRLDGGNKRKNTDSSEERTSKRSKNETEIAVSDILQVASQSENYNESTNSGRLQNEISSSIHQFPSTSYQNQYPHAYPTVNTPPIYVQQFTALFDEIHNQFDPKTKQNRVAKNVQYLSSVPQFAINQKENIHQNAPDYPVSQFPNQYPYGSYPYYYPYFQSSQQFPHLNYSMNNSIYSDSSFQSSFSAENSYFDENGNPIHYPYYSSN	not soluble
PPLYVPEQLVVHKETHQAHVMIGSRGYNAYDDKRTALYLLNNILGGPGMNSRLNVSLRERRGLVYTVESNLTSYTDTGAFCIYFGTDPEDVDTCLKLTYKELKRMRDVKMTSSQLMAAKKQLIGQIGVASDNNENNALGMAKTFLHYNKYESSESVFRRIEALTAEGLLEVANEMFAEEYLSTLIYR	not soluble
MAAQLSEIEVKGVKIPLIYEKSTLMPAVNLQIVFTHAGSITDEIPGLASLSARIFNEGTKTLGSVEFAKELENRAISLSVGSGNETLVFDMSALKSEYLEGLRLTRELLRQPNFTKEALSKVKTDIKASLLRKESDFDYVAQVELHRRLFEGTPLEYPSMGNRESIEKITLKEVEEFWKKRGVLRRAIVLVGGDVELEEVKKDLLSLLSVLPLGEEGELVRYEAKGDLEVKSVIKNTQQAYIYFGSPFSVKNLREDSYKAKVAAFVLGSSGFGSRMMEEIRVKRGLAYSAYWRISLSKSVNYSLGYLQTKLENEQQAIGVVRELIEEFLQKGITEKELEGAKQFLLGSEPLRNETLSQRLSSAFSAYYRGLPLDFAKEELHKIEALTLEEINAYIKEHQELLQLSFSVVTAPKE	not soluble
MQEEVNQKVISLSIQGVKITASVLKAALRKFLEMDNRRKQKATQVKMAEKTGRAQEKGREKARKKIEKKKPHGKQTIKQLNAQGVQLSNLKITDENVKSFDRVARKYGIDYSLKKEVGADPPKYLVFFKAKDVDVMTAAFREYAGVELKKKQVKKPSVRKKLQKSVERKAKNRQRVKQRQKSRGQER	not soluble
MDIRQMNRTHLDHWRGLRKQLWPGHPDDAHLADGEEILQADHLASFIAMADGVAIGFADASIRHDYVNGCDSSPVVFLEGIFVLPSFRQRGVAKQLIAAVQRWGTNKGCREMASDTSPENTISQKVHQALGFEETERVIFYRKRC	not soluble
MGSDKIHHHHHHMGVQSAVRVHRAISEIGQDAWDACAASTGDPFVSYDFLSILEESGCVAARTGWAPQHLTVLDEADQVAGVMPLYLKSHSQGEYVFDHSWADAYERAGGRYYPKLQCSSPFSPVTGSRLIVRPDIDAAEGRSALMGGALTLCERMGASSLHVTFPVEDQWRWMGERGMLLRQDQQYHWENRGYETFDDFLGALSANRRKTIRRERRDAQEGLEIVALTGADLTEDHWDAFFAFYMDTGGRKWGRPYLNRPFFSLLGQRMADKVLLILARRPGGPFIAGALNLLGRDCLYGRHWGCVEDAPFLHFELCYYQAIEHAIRLGLPRVEAGAQGQHKIARGYLPSAVYSAHWIADPMLREPVARYLERERAAVESDMEMLTEEYSPFREER	not soluble
